From PMC6858323, “Multiple conformations facilitate PilT function in the type IV pilus” (Nature Communications, 2019)

B1: PilT from Pseudomonas aeruginosa (PilT^Pa), purified (enzyme)
chain: MDITELLAFSAKQGASDLHLSAGLPPMIRVDGDVRRINLPPLEHKQVHALIYDIMNDKQRKDFEEFLETDFSFEVPGVARFRVNAFNQNRGAGAVFRTIPSKVLTMEELGMGEVFKRVSDVPRGLVLVTGPTGSGKSTTLAAMLDYLNNTKYHHILTIEDPIEFVHESKKCLVNQREVHRDTLGFSEALRSALREDPDIILVGEMRDLETIRLALTAAETGHLVFGTLHTTSAAKTIDRVVDVFPAEEKAMVRSMLSESLQSVISQTLIKKIGGGRVAAHEIMIGTPAIRNLIREDKVAQMYSAIQTGGSLGMQTLDMCLKGLVAKGLISRENAREKAKIPENF
notes: PilT, Pseudomonas aeruginosa, expressed from pET28a:PilT^Pa; the cloning of this plasmid is not described; also called apo-PilT^Pa; wild-type PilT^Pa; source: E. coli BL21-CodonPlus, purified (Ni-NTA, Superdex 200 SEC)
B2: K58A PilT from Pseudomonas aeruginosa, purified (enzyme)
chain: MDITELLAFSAKQGASDLHLSAGLPPMIRVDGDVRRINLPPLEHKQVHALIYDIMNDAQRKDFEEFLETDFSFEVPGVARFRVNAFNQNRGAGAVFRTIPSKVLTMEELGMGEVFKRVSDVPRGLVLVTGPTGSGKSTTLAAMLDYLNNTKYHHILTIEDPIEFVHESKKCLVNQREVHRDTLGFSEALRSALREDPDIILVGEMRDLETIRLALTAAETGHLVFGTLHTTSAAKTIDRVVDVFPAEEKAMVRSMLSESLQSVISQTLIKKIGGGRVAAHEIMIGTPAIRNLIREDKVAQMYSAIQTGGSLGMQTLDMCLKGLVAKGLISRENAREKAKIPENF
notes: PilT, Pseudomonas aeruginosa, with K58A; the expression construct of the purified mutant is not described; also called K58A PilT^Pa; K58A mutant; source: purified

Target: the molecule itself
Assay: cryoEM 2D class averages; PilT^Pa 0.75 mg/ml without added nucleotide, 4 °C; top-view 2D class averages compared with projections of PilT crystal structures

Protein | stoichiometry N
B1 | 6
B2 | 6
